B1: human B7-1Fc fusion protein (Fc fusion, UniProt P33681 35-242, looked up, not shown: a dimerising Fc or GST)
chain: VIHVTKEVKEVATLSCGHNVSVEELAQTRIYWQKEKKMVLTMMSGDMNIWPEYKNRTIFDITNNLSIVILALRPSDEGTYECVVLKYEKDAFKREHLAEVTLSVKADFPTPSISDFEIPTSNIRRIICSTSGGFPEPHLSWLENGEELNAINTTVSQDPETELYAVSSKLDFNMTTNHSFMCLIKYGHLRVNQTFNWNTTKQEHFPDN
notes: Used biotinylated in ELISA; also called B7-1 Ig; B7-1 Ig fusion protein

Tests used:
[1] = target: T1, human IgG1-Fc control (human, UniProt P01857-1 99-330 = IgG part, limits assumed); assay: ELISA, summary grade
T1 construct: domain: Fc; Negative control coated on plates; also called Control IgG1-Fc; hIg-Fc

[2] = target: T2, CTLA-4Fc mutant protein M6 (human (murine residues substituted)); assay: ELISA; binder 10 ng/ml on coated target
T2 construct: also called Mutant 6

[3] = target: T3, CTLA-4Fc mutant protein M8 (human (murine residues substituted)); assay: ELISA; binder 1000 ng/ml on coated target
T3 construct: also called Mutant 8

[4] = target: T2, CTLA-4Fc mutant protein M6; assay: ELISA; binder 1000 ng/ml on coated target
[5] = target: B1; assay: ELISA, summary grade

Binder | binding result [1] | OD450 [2] | OD450 [3] | OD450 [4] | binding result [5]
B1 | no binding | 0.279 OD450 | 3.63 OD450 | 3.41 OD450 | 
CTLA-4Fc mutant protein M16 (Fc fusion) IQVTQPSVVLASSRGIASFVCEYASPGKATEVRVTVLRQADSQVTEVCAATFTEKNTVGFLDDSICTGTFNESRVNLTIQGLRAMDTGLYICKVELMYPPPYFVGMGNGTQIYVIDPEPCPDSDQEPKSSDKTHTSPPSPAPELLGGSSVFLFPPKPKDTLYITREPEVTCVVVDVSHEDPEVKFNWYVDGVEVHNAKTKPREEQYNSTYRVVSVLTVLHQDWLNGKEYKCKVSNKALPAPIEKTISKAKGQPREPQVYTLPPSRDELTKNQVSLTCLVKGFYPSDIAVEWESNGQPENNYKTTPPVLDSDGSFFLYSKLTVDKSRWQQGNVFSCSVMHEALHNHYTQKSLSLSPGK |  |  |  |  | binds
human B7-2Fc fusion protein (Fc fusion, UniProt P42081 24-245, looked up, not shown: a dimerising Fc or GST, Used biotinylated in ELISA; also called hB7-2Fc; CD86) APLKIQAYFNETADLPCQFANSQNQSLSELVVFWQDQENLVLNEVYLGKEKFDSVHSKYMGRTSFDSDSWTLRLHNLQIKDKGLYQCIIHHKKPTGMIRIHQMNSELSVLANFSQPEIVPISNITENVYINLTCSSIHGYPEPKKMSVLLRTKNSTIEYDGVMQKSQDNVTELYDVSISLSVSFPDVTSNMTIFCILETDKTRLLSSPFSIELEDPQPPPDH | no binding |  |  |  | 

From patent US20190263889A1 (ONCOC4, published 2019)
